Drawing on publication doi:10.1101/2023.06.05.543739, this text covers Kd for three substances.

Common to all, as to assay: ITC
On the technique in general: In ITC the heat of successive injections is recorded.

Assay [1] deals with PER2 1132-1252 (UniProt O54943).
Assay [2] has as its target hRbBP5 (Isoform 2) (human).
For assay [3], the target named is PER1 1013-1291 (UniProt O35973).
UniProt O35973, sequence (O35973 1013-1291): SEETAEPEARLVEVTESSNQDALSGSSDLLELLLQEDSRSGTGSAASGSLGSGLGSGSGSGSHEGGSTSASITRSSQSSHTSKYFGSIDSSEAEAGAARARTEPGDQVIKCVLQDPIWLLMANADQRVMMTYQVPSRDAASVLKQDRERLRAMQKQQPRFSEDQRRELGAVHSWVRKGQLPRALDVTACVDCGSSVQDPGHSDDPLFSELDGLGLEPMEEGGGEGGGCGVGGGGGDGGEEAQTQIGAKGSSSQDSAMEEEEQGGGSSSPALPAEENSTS

UniProt O54943, sequence (O54943 1132-1252): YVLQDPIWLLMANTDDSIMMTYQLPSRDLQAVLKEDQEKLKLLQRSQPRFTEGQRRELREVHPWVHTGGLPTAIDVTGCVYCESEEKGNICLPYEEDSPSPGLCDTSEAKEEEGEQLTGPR

Take “WDR5 23-334 (from UniProt P61964 23-334) (domain or fragment; other documents disagree on this pair)”: in assay [1], the dissociation constant (Kd) (in general, the equilibrium constant for the complex coming apart) was determined as 50 µM. For the substance “WDR5 23-334 N225A (from UniProt P61964 23-334) (domain or fragment)”, the equilibrium dissociation constant (Kd) in assay [2] came to 71 µM. In assay [3], “WDR5 23-334 N225A (from UniProt P61964 23-334) (domain or fragment; other documents disagree on this pair)” showed a dissociation constant (Kd) of 7 µM.
